# From the nanobody polyreactivity screen of Harvey et al. (2022)
# Test: yeast display, Sf9 membrane polyspecificity reagent, FACS + sequencing; frameworks hold sequencing errors
# Summary of the method: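 Nanobodies from a synthetic yeast display library (Saccharomyces cerevisiae BJ5465), induced 36–48 hours with galactose, were stained 1 hour at 4 °C with 10% biotinylated, detergent-solubilized Sf9 membrane reagent, enriched on streptavidin microbeads, then FACS-sorted. Anti-HA (expression) and streptavidin (reagent binding) fluorescence set low and high (top ~1%) gates. Polyreactivity labels come from the gate of origin. Genes were colony-PCR amplified, MiSeq 2 × 250 sequenced and filtered by CDR length.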
row,Sequence,polyreactivity (PSR sort gate)
1,QVQLQVSGGDLVQAGGSLRLSCEASGTIYGLTSMGWYRQAPGKEREFVAAITDGGNTNYADSVKGRFTISRDNAKNTVYLQMISLKPEDTGVYYCAVLFSDDAYYAYWGQGTQVTVSS,low polyreactivity
2,QVQLRESGGGLVQAGGSLSLSCAASGTIFYSRYMGWYRQAPGKEREFVASNSSGGNTNYADSVKGRFTISRDNAKNTVYLQMNSLKPEVSAVYYCEVNTGLITTFPYWGQGTQVTVSS,high polyreactivity
3,QVQLVASGGALVQAGGSLRLSCAASGRISTYTMGWYRQGPGKERELVATISTDASTNYADSVKGRFTISRDNAKNTVYLQMNSLKPEATAVYYCAAVIVNQDYDYWGQGTQLTVSS,low polyreactivity
4,QVQLVASGGGFVQAGGSLRVSCAASGGTILGNAMGWDRQAPGKERELVATITARVGSTYYADSVKGRFTISRDNAKNTVYLQMNSLKPEDTAVYYCAARKVWGYTYGYPYYYWGQGTQVTVSS,high polyreactivity
5,QVQLVASGGGIDQAGGSHRLSCAASGSIFPAYTMGWYRPAPGKERELVAAITRRGGSTYYADSVKGRFTISRDNAKNTVYLQMNSLKPEDSAVYYCAADGFNSDDTPSWYWGEYWGPGTQVTVSS,low polyreactivity
6,QVQLVASGGGLVHAGGSLRLSCAASGGTFWDYAMGWSRQAPGKERELVAVISDSGGTYYADSVKGRFTISRDNAKNTVYLQMNSLKPEDTAVYYCAAGSLTLSTSTVWFAYDYWGQGTQVTVSS,high polyreactivity
7,QVQLVASGGGLVQAGASLRLSCAASGFTFSLYGLGGYRQAPGKERELVAALRSGGSTNYADSVKGRFTISRDNAKNTVYLQLNSLKPEDTAVYYCATDIHSVLNNRVKHDYDYWGQGTQVTVSS,low polyreactivity
8,QVQLVASGGGLVQAGGSLRISCAASGRTITPYAMGWYRQAPGKERELVATISSGTSPNYADSVKGRFTISRDNAKNTVYLQMNSLIPEDTAVYYCAADGYTYKFDYWGQGTQVTVSS,low polyreactivity
9,QVQLVASGGGLVQAGGSLRLSCAASGFIFWYYAMGWYRQAPGKERELVATITSGGSTTYADSVKGRFTISRDNAKNTVYLQMYSLKPEDTAVYYCAAKGISRYDWGQGTQVTVSS,low polyreactivity
10,QVQLVASGGGLVQAGGSLRLSCAASGFTFYYYAMGWYRKAPGKERELVAGISGRGGTTYYADSVKGRFTISRDNAKNTFYLQLNSLKPEDTAVYDCAARKVRARSKFEYWGQGNQVTVSS,high polyreactivity
11,QVQLVASGGGLVQAGGSLRLSCAASGRTFKYNTMGWYRQAPGKERELVAVISRSGGRTYYADSVKGRFTISRDNAKNTVYLQMNSLKPEDTAVYYCAKGIPYADPQSAYDDYWGQGTQVTVSS,high polyreactivity
12,QVQLVASGGGLVQAGGSLRLSCAASGSIFIYYTMGWYRQAPGKERELVAAINRGGSTYYADSVKGRFTISRDNAKNTVYLQMNSLKPEDTAVYYCNARYYRLPYWDAVKYDYWGQGTQVTVSS,low polyreactivity
13,QVQLVASGGGLVQAGGSLRLSCAASGSIFTHNALGWSRQAPGNERALVAAISSGGSTNYADSVKGRFTISRDNAKNTVYLQMNSLKPEDTAVYYCAKSIDGWYWRRRRYDYWGQGTQVTVSS,low polyreactivity
14,QVQLVASGGGLVQEGGSLRLSCAASGSTFYVNAMGWYRPAAGKERELVAAISLSGGRTYYADSVKGRFTISRDNAKNPVYLQMNSLNQEDTAVYYCAARDSARYYWGQGTQVTVSS,high polyreactivity
15,QVQLVDAGGRLVQAGGSLRLSCAASGRIFAYYAMGWSRQAPGKDRELVSGISQRGSRTYYADSVKGRFTISRDNEKNTVYLQMNSLKPEDTAVYYCNTQRWGSGVGSLMDYWGQGTQVTVSS,high polyreactivity
16,QVQLVDSAGGLVQAGGSLRLICAASGYTQIKNAMGVSRHAPGKERELVAAISSGGSTKYADSVKGRFTISRDNAKNTVYLQMNSLKPEDTAVYYCAKGRVVPYRRYTRIHMYHWGLGTQVTVSS,high polyreactivity
17,QVQLVDSAGGLVQAGGSLRLSCDAYGSNFGVNAMGWYRQAPGKERELVAIITSTTYADSVKGRFTISRDNAKNTVYLQMNSLKREDTAVYYCAIDQERVTKGRFYLLEYDWGHGTQVTVSS,low polyreactivity
18,QVQLVDSAGGLVQAGGSLSLSCAASGITFVSKVMGWYRQAPGKEREFVAAITGRGDSTYADSVKGRFTNSRDNAKNCVYLQMNSLKPEDTAVYYCAAEYSVPYRGWDGYEYWGQGTQVTVSS,low polyreactivity
19,QVQLVDSCGVLVQAGGSLRLSCAASGITFNLYAMGWYRQAPGKERELVAAISNVGSTKYADSVKGRFTISRDNAKNTVYLQMNSLKPEDTAVYYCAAAQWAYWLLYNYWGQGTQVTVSS,low polyreactivity
20,QVQLVDSGGCLVHAGASLRLSCAASGGIFRTYAMGWARQAAGKERELVAAITFSAGSTFYADSVKGRYTISRDNAKNTVYLQMNSLKPEDTAVYDCATPGYILGLYQYWHHYDYWGQGTQVTVSS,low polyreactivity
21,QVQLVDSGGCLVQAGGSLRLSCASSGRIIAHYAMGWYRQSPGKESELVAAISTRGGSTYYADSVKGRFTISRDNEKNTVYLQMNSLKPEDTAVYYCAAKSNNIATMDYWGQGTQVTVSS,low polyreactivity
22,QVQLVDSGGGLDQAGGSLRLSCAASGSNLRLKAMGWYRQAPGKERELVADITRAGSTYYADSVKGRFTISRDNAKNTVYLQMNSLKPEDTAVYYCAADAYTGQIPYYYFEHYYWGHGTQVTVSS,high polyreactivity

row,Sequence,polyreactivity (PSR sort gate)
1,QVQLVDSGGGLFQAGGSLSLICAASASKYDINAMGRYRQAPGKETELVADISWSGGRTYYADSVKGRFTISRDNAKNTVYLKMNSLKPEETAVYYCNAQDSRFWYAEYDSWGQGTQVTVSS,low polyreactivity
2,QVQLVDSGGGLVKAGGSLRLSCAASGSTFDTNVMGWYRPAPGKERELVAAIDVSGGSTYYADSVKGRFTISRDNAKNYVYLQMYSLKPEDTAVFYSAAEDGLYGMDYWGQGSQVTVSS,low polyreactivity
3,QVQLVDSGGGLVPSGGSLRISCAASGRIFYPYAMGWYRQAPGKEREVVATITRTGSTYYADSVKGRFTISRDNAMNTVYLQMNSLKPEDTAVYYCNAGIYRPRVDYWGQGTQVTVSS,high polyreactivity
4,QVQLVDSGGGLVQAGASLRLRCAASVLTLYANAMGRYRQAPGKERELVAGIDNGGSTSYADSVKGRFTISRDNAKKTVYLQKNSLKPEDTAVYYCAAQRDSVGGRHYAQRWIYLMYYWGQGTQVTVSS,low polyreactivity
5,QVQLVDSGGGLVQAGCSLRLSCAASGRTFSNYAMGWYRQAPGKDRELVAAISWRGGSTYYADSVKGRFTISRDNAKNTVYLQMTSLKPEDTAVYYCAALPRYALGEDYWGQGTQVTVSS,high polyreactivity
6,QVQLVDSGGGLVQAGGILRLSCAASGRTISSYAMGWYRQAPGKERELVAAITRTGGRTYYAYSVKGRFTISRDNAKNTVYLQMNSLKPEDTAVYYCAATGIRYGVKYYYWGQGTQVTVSS,high polyreactivity
7,QVQLVDSGGGLVQAGGRLLLSCAASGRTFRKYTMGWYREAPGKERELVAAISSRGGSTYYADSVKGRFTISRDNAKYTVYLQMNSMKPEDTAVYYCDTDYITPSSEGDYWGQGTQVTVSS,high polyreactivity
8,QVQLVDSGGGLVQAGGRLRLSCAASGRTFVRYAMGWYRQAPGKERELVATIRWRGGSTYYADSVKGRFTISRDNAKNTVYLQMNSLKPDDTAVYYCAARRYSSGLTDDYWGQGTQVTVSS,high polyreactivity
9,QVQLVDSGGGLVQAGGRLRLSCAASGSTFIYNAMGWYRQAPGKERELVASISTSGGSTYYADSVKGRFTISRDNAKNTVYLQMNSLKPEDTAVYYCAKRYFFKYGYWGQGTQVTVSS,high polyreactivity
10,QVQLVDSGGGLVQAGGRLRLSCAASGVTIQPNARGWYRQAPGKERELVPSISWSDGSTYYADSVKGRFTISRDNAKNTVFLQMNSLKPEDTAVYYCAADFTYYDPPYRDYNYESWGQGTQVTVSS,low polyreactivity
11,QVQLVDSGGGLVQAGGSLRLICAASGFIFGKYAMGWYRQAPGKEWEFVAAITGNGGSTYYADSVKGRFTISRDNAKNTVYLQMNSLKPEDTAVYYCNADRGYRRRSGMDYWGQGTQLTVSS,low polyreactivity
12,QVQLVDSGGGLVQAGGSLRLRCAASGRIFWYYAMGWYRQAPGKERELVASITRGNNTYYADSVKGRFTISRDNAKNTVYLQMNSLKPEVTAVFYCAKRYIYSYYWGQGTQVTVSS,high polyreactivity
13,QVQLVDSGGGLVQAGGSLRLSCAASGFIFRSYALGWYRQAPGKERELVAAISRRGGSTYYADSVKGRFTISRDHAKNTVYLQMNSLKPEDTAVYYCAAESRGVYGYAQSDFWGQGTQVTVSS,high polyreactivity
14,QVQLVDSGGGLVQAGGSLRLSCAASGFIFSSYAMGWYRQAPGKERELVAAITRSGGRTYYADSVKGRFTISRDNAKNTVYLQMNSLKQEDTAVYYCAAPNGAGYRGDYWGQGTQVTVSS,high polyreactivity
15,QVQLVDSGGGLVQAGGSLRLSCAASGFTFAYYALGWYRPAPGKEREFVAAITSGGRTNYADSVKGRFTISRDNAKNTVYLQMNSLKPEDTAVYYCAKYRRGGSRHYSVFNHDYWGQGTQVTVSS,high polyreactivity
16,QVQLVDSGGGLVQAGGSLRLSCAASGFTFAYYAMGWYRQAPGKERELVAGISWRGGRTYYADSVKGRFTISRDNAKNTVYLQMNSLKPEDTAVYYCAKQPGNFGRFDYWGQGTKVTVSS,high polyreactivity
17,QVQLVDSGGGLVQAGGSLRLSCAASGFTFDGYAMGWYRQAPGQEREFVATISLSGGSTYYADSVKGRCTISRDNAKNTVYLQMNSLNPEDTAVYYCGKDTQPYLIDGFEYWGQGTQVTVSS,low polyreactivity
18,QVQLVDSGGGLVQAGGSLRLSCAASGFTFQRKAMGWYRQATGKERELVAAISKSGGSTYYADSVKARFTISRDNEKNTVYLEMNSLKPEDTAVYYCASTALFSGLTKRYYWGQGTQVTVSS,high polyreactivity
19,QVQLVDSGGGLVQAGGSLRLSCAASGFTFQYYSMGWYRQATGKERELVADISSSGDSTNYADSVKGRFTISRDTAKNTVYLQMNSLKPEDTAVYYCAADYSQPNFEYYYWGQGTQVTVSS,low polyreactivity
20,QVQLVDSGGGLVQAGGSLRLSCAASGGIFYHNAMGWYRQAPGKERELVAAISGRGGRTYYADSVKGRFTISRDNAKNTVYLQMNSLKPEDTAVYYCYADQYKDFDYWGQGTQVTVSS,low polyreactivity
21,QVQLVDSGGGLVQAGGSLRLSCAASGIIFSDYAMGWYRKAPGIERELVAAISRNGGSTYYADSVKGRFTISRDIAKYTVYLQMNSLKPEDTAVYYCAATRRYRYNWGQGTQVTVSS,high polyreactivity
